Data from article PMC3691886.
One block for each substance: values may come before it.

Legend:
[1] = molecular target: α1-antitrypsin reactive loop mutant P10P8 (G349D, M351D) on the C232S background (UniProt P01009); test: FRET or BRET; heat-induced polymerization at 55°C; 0.1 mg/ml protein in 10 mM Na2HPO4/NaH2PO4, 0.1 M NaCl, 0.1% PEG8K, pH 7.4; 2-8 μM ATTO-550-Ni-NTA and ATTO-647N-Ni-NTA on the His tag; apparent rate, corrected to zero dye; monomer to polymer
[2] = molecular target: bovine α-chymotrypsin (bovine); test: enzyme inhibition progress curves; pseudo-first-order conditions, 4 h at 25°C, 5-600 nM inhibitor, 200 μM substrate, 0.5 nM bovine α-chymotrypsin
[3] = molecular target: α1-antitrypsin reactive loop mutant P10P8 (G349D, M351D) on the C232S background (UniProt P01009); test: FRET or BRET; heat-induced polymerization at 50°C; 0.1 mg/ml protein in 10 mM Na2HPO4/NaH2PO4, 0.1 M NaCl, 0.1% PEG8K, pH 7.4; 2-8 μM ATTO-550-Ni-NTA and ATTO-647N-Ni-NTA on the His tag; apparent rate, corrected to zero dye; monomer to polymer
[4] = molecular target: bovine α-chymotrypsin (bovine)
[5] = molecular target: α1-antitrypsin reactive loop mutant P10P8 (G349D, M351D) on the C232S background (UniProt P01009); test: FRET or BRET; heat-induced polymerization at 60°C; 0.1 mg/ml protein in 10 mM Na2HPO4/NaH2PO4, 0.1 M NaCl, 0.1% PEG8K, pH 7.4; 2-8 μM ATTO-550-Ni-NTA and ATTO-647N-Ni-NTA on the His tag; apparent rate, corrected to zero dye; monomer to polymer
[6] = molecular target: α1-antitrypsin reactive loop mutant P6 (L353D) on the C232S background (UniProt P01009); test: FRET or BRET; heat-induced polymerization at 55°C; 0.1 mg/ml protein in 10 mM Na2HPO4/NaH2PO4, 0.1 M NaCl, 0.1% PEG8K, pH 7.4; 2-8 μM ATTO-550-Ni-NTA and ATTO-647N-Ni-NTA on the His tag; apparent rate, corrected to zero dye; monomer to polymer
[7] = molecular target: α1-antitrypsin reactive loop mutant P6 (L353D) on the C232S background (UniProt P01009); test: FRET or BRET; heat-induced polymerization at 50°C; 0.1 mg/ml protein in 10 mM Na2HPO4/NaH2PO4, 0.1 M NaCl, 0.1% PEG8K, pH 7.4; 2-8 μM ATTO-550-Ni-NTA and ATTO-647N-Ni-NTA on the His tag; apparent rate, corrected to zero dye; monomer to polymer
[8] = molecular target: α1-antitrypsin reactive loop mutant P6 (L353D) on the C232S background (UniProt P01009); test: FRET or BRET; heat-induced polymerization at 60°C; 0.1 mg/ml protein in 10 mM Na2HPO4/NaH2PO4, 0.1 M NaCl, 0.1% PEG8K, pH 7.4; 2-8 μM ATTO-550-Ni-NTA and ATTO-647N-Ni-NTA on the His tag; apparent rate, corrected to zero dye; monomer to polymer
[9] = molecular target: α1-antitrypsin reactive loop mutant P14P12 (T345D, A347D) on the C232S background (UniProt P01009); test: FRET or BRET; heat-induced polymerization at 55°C; 0.1 mg/ml protein in 10 mM Na2HPO4/NaH2PO4, 0.1 M NaCl, 0.1% PEG8K, pH 7.4; 2-8 μM ATTO-550-Ni-NTA and ATTO-647N-Ni-NTA on the His tag; apparent rate, corrected to zero dye; monomer to polymer
[10] = molecular target: α1-antitrypsin reactive loop mutant P14P12 (T345D, A347D) on the C232S background (UniProt P01009); test: FRET or BRET; heat-induced polymerization at 50°C; 0.1 mg/ml protein in 10 mM Na2HPO4/NaH2PO4, 0.1 M NaCl, 0.1% PEG8K, pH 7.4; 2-8 μM ATTO-550-Ni-NTA and ATTO-647N-Ni-NTA on the His tag; apparent rate, corrected to zero dye; monomer to polymer
[11] = molecular target: α1-antitrypsin reactive loop mutant P14P12 (T345D, A347D) on the C232S background (UniProt P01009); test: FRET or BRET; heat-induced polymerization at 60°C; 0.1 mg/ml protein in 10 mM Na2HPO4/NaH2PO4, 0.1 M NaCl, 0.1% PEG8K, pH 7.4; 2-8 μM ATTO-550-Ni-NTA and ATTO-647N-Ni-NTA on the His tag; apparent rate, corrected to zero dye; monomer to polymer
[12] = molecular target: α1-antitrypsin reactive loop mutant P2P1′ (P357D, S359D) on the C232S background (UniProt P01009); test: FRET or BRET; heat-induced polymerization at 55°C; 0.1 mg/ml protein in 10 mM Na2HPO4/NaH2PO4, 0.1 M NaCl, 0.1% PEG8K, pH 7.4; 2-8 μM ATTO-550-Ni-NTA and ATTO-647N-Ni-NTA on the His tag; apparent rate, corrected to zero dye; monomer to polymer
[13] = molecular target: α1-antitrypsin reactive loop mutant P2P1′ (P357D, S359D) on the C232S background (UniProt P01009); test: FRET or BRET; heat-induced polymerization at 50°C; 0.1 mg/ml protein in 10 mM Na2HPO4/NaH2PO4, 0.1 M NaCl, 0.1% PEG8K, pH 7.4; 2-8 μM ATTO-550-Ni-NTA and ATTO-647N-Ni-NTA on the His tag; apparent rate, corrected to zero dye; monomer to polymer
[14] = molecular target: α1-antitrypsin reactive loop mutant P2P1′ (P357D, S359D) on the C232S background (UniProt P01009); test: FRET or BRET; heat-induced polymerization at 60°C; 0.1 mg/ml protein in 10 mM Na2HPO4/NaH2PO4, 0.1 M NaCl, 0.1% PEG8K, pH 7.4; 2-8 μM ATTO-550-Ni-NTA and ATTO-647N-Ni-NTA on the His tag; apparent rate, corrected to zero dye; monomer to polymer
[15] = molecular target: recombinant α1-antitrypsin, M allele with the C232S mutation (AT_(C232S)) (UniProt P01009); test: FRET or BRET; heat-induced polymerization at 55°C; 0.1 mg/ml protein in 10 mM Na2HPO4/NaH2PO4, 0.1 M NaCl, 0.1% PEG8K, pH 7.4; 2-8 μM ATTO-550-Ni-NTA and ATTO-647N-Ni-NTA on the His tag; apparent rate, corrected to zero dye; monomer to polymer
[16] = molecular target: recombinant α1-antitrypsin, M allele with the C232S mutation (AT_(C232S)) (UniProt P01009); test: FRET or BRET; heat-induced polymerization at 50°C; 0.1 mg/ml protein in 10 mM Na2HPO4/NaH2PO4, 0.1 M NaCl, 0.1% PEG8K, pH 7.4; 2-8 μM ATTO-550-Ni-NTA and ATTO-647N-Ni-NTA on the His tag; apparent rate, corrected to zero dye; monomer to polymer
[17] = molecular target: recombinant α1-antitrypsin, M allele with the C232S mutation (AT_(C232S)) (UniProt P01009); test: FRET or BRET; heat-induced polymerization at 60°C; 0.1 mg/ml protein in 10 mM Na2HPO4/NaH2PO4, 0.1 M NaCl, 0.1% PEG8K, pH 7.4; 2-8 μM ATTO-550-Ni-NTA and ATTO-647N-Ni-NTA on the His tag; apparent rate, corrected to zero dye; monomer to polymer
[18] = molecular target: α1-antitrypsin reactive loop mutant P6P4 (L353D, A355D) on the C232S background (UniProt P01009); test: FRET or BRET; heat-induced polymerization at 55°C; 0.1 mg/ml protein in 10 mM Na2HPO4/NaH2PO4, 0.1 M NaCl, 0.1% PEG8K, pH 7.4; 2-8 μM ATTO-550-Ni-NTA and ATTO-647N-Ni-NTA on the His tag; apparent rate, corrected to zero dye; monomer to polymer
[19] = molecular target: α1-antitrypsin reactive loop mutant P6P4 (L353D, A355D) on the C232S background (UniProt P01009); test: FRET or BRET; heat-induced polymerization at 50°C; 0.1 mg/ml protein in 10 mM Na2HPO4/NaH2PO4, 0.1 M NaCl, 0.1% PEG8K, pH 7.4; 2-8 μM ATTO-550-Ni-NTA and ATTO-647N-Ni-NTA on the His tag; apparent rate, corrected to zero dye; monomer to polymer
[20] = molecular target: α1-antitrypsin reactive loop mutant P6P4 (L353D, A355D) on the C232S background (UniProt P01009); test: FRET or BRET; heat-induced polymerization at 60°C; 0.1 mg/ml protein in 10 mM Na2HPO4/NaH2PO4, 0.1 M NaCl, 0.1% PEG8K, pH 7.4; 2-8 μM ATTO-550-Ni-NTA and ATTO-647N-Ni-NTA on the His tag; apparent rate, corrected to zero dye; monomer to polymer
[21] = molecular target: α1-antitrypsin reactive loop mutant P4 (A355D) on the C232S background (UniProt P01009); test: FRET or BRET; heat-induced polymerization at 55°C; 0.1 mg/ml protein in 10 mM Na2HPO4/NaH2PO4, 0.1 M NaCl, 0.1% PEG8K, pH 7.4; 2-8 μM ATTO-550-Ni-NTA and ATTO-647N-Ni-NTA on the His tag; apparent rate, corrected to zero dye; monomer to polymer
[22] = molecular target: α1-antitrypsin reactive loop mutant P4 (A355D) on the C232S background (UniProt P01009); test: FRET or BRET; heat-induced polymerization at 50°C; 0.1 mg/ml protein in 10 mM Na2HPO4/NaH2PO4, 0.1 M NaCl, 0.1% PEG8K, pH 7.4; 2-8 μM ATTO-550-Ni-NTA and ATTO-647N-Ni-NTA on the His tag; apparent rate, corrected to zero dye; monomer to polymer
[23] = molecular target: α1-antitrypsin reactive loop mutant P4 (A355D) on the C232S background (UniProt P01009); test: FRET or BRET; heat-induced polymerization at 60°C; 0.1 mg/ml protein in 10 mM Na2HPO4/NaH2PO4, 0.1 M NaCl, 0.1% PEG8K, pH 7.4; 2-8 μM ATTO-550-Ni-NTA and ATTO-647N-Ni-NTA on the His tag; apparent rate, corrected to zero dye; monomer to polymer

- k (app,fr) (apparent rate of polymerization) [1]: 0.00066 s⁻¹
- kass•SI [2]: 570000
- kon [2]: 120000 M⁻¹ s⁻¹
- k (app,fr) (apparent rate of polymerization) [3]: 7.2e-05 s⁻¹
- SI (stoichiometry of inhibition): residual activity of 0.5 μM bovine α-chymotrypsin after 30 min with inhibitor [4]: 4.56
- k (app,fr) (apparent rate of polymerization) [5]: 0.0028 s⁻¹
Substance: α1-antitrypsin reactive loop mutant P10P8 (G349D, M351D) on the C232S background (from UniProt P01009 26-418) (natural protein)

- k (app,fr) (apparent rate of polymerization) [6]: 0.0007 s⁻¹
- k (app,fr) (apparent rate of polymerization) [7]: 3.7e-05 s⁻¹
- k (app,fr) (apparent rate of polymerization) [8]: 0.01 s⁻¹
Substance: α1-antitrypsin reactive loop mutant P6 (L353D) on the C232S background (from UniProt P01009 26-418) (natural protein)

- k (app,fr) (apparent rate of polymerization) [9]: 0.00043 s⁻¹
- k (app,fr) (apparent rate of polymerization) [10]: 5.8e-05 s⁻¹
- k (app,fr) (apparent rate of polymerization) [11]: 0.024 s⁻¹
Substance: α1-antitrypsin reactive loop mutant P14P12 (T345D, A347D) on the C232S background (from UniProt P01009 26-418) (natural protein)

- k (app,fr) (apparent rate of polymerization) [12]: 0.0017 s⁻¹
- k (app,fr) (apparent rate of polymerization) [13]: 0.00022 s⁻¹
- SI (stoichiometry of inhibition): residual activity of 0.5 μM bovine α-chymotrypsin after 30 min with inhibitor [4]: 100
- k (app,fr) (apparent rate of polymerization) [14]: 0.012 s⁻¹
Substance: α1-antitrypsin reactive loop mutant P2P1′ (P357D, S359D) on the C232S background (from UniProt P01009 26-418) (natural protein)

- k (app,fr) (apparent rate of polymerization) [15]: 0.0016 s⁻¹
- kass•SI [2]: 1.5e+06
- kon [2]: 1.5e+06 M⁻¹ s⁻¹
- k (app,fr) (apparent rate of polymerization) [16]: 0.00021 s⁻¹
- SI (stoichiometry of inhibition): residual activity of 0.5 μM bovine α-chymotrypsin after 30 min with inhibitor [4]: 1.1
- k (app,fr) (apparent rate of polymerization) [17]: 0.01 s⁻¹
Substance: recombinant α1-antitrypsin, M allele with the C232S mutation (AT_(C232S)) (from UniProt P01009 26-418) (natural protein)

- k (app,fr) (apparent rate of polymerization) [18]: 0.00044 s⁻¹
- k (app,fr) (apparent rate of polymerization) [19]: 9.8e-06 s⁻¹
- SI (stoichiometry of inhibition): residual activity of 0.5 μM bovine α-chymotrypsin after 30 min with inhibitor [4]: 89
- k (app,fr) (apparent rate of polymerization) [20]: 0.0055 s⁻¹
Substance: α1-antitrypsin reactive loop mutant P6P4 (L353D, A355D) on the C232S background (from UniProt P01009 26-418) (natural protein)

- k (app,fr) (apparent rate of polymerization) [21]: 0.0011 s⁻¹
- k (app,fr) (apparent rate of polymerization) [22]: 0.00011 s⁻¹
- k (app,fr) (apparent rate of polymerization) [23]: 0.078 s⁻¹
Substance: α1-antitrypsin reactive loop mutant P4 (A355D) on the C232S background (from UniProt P01009 26-418) (natural protein)
